Data: paper PMC8595662 (Nature Communications, 2021)

Legend:
[1] = target: T1, EBV gH/gL (gH 19-679 linked to gL 24-137 by (G4S)3) (Epstein-Barr virus (human …)); assay: SPR; settings: both partners purified
T1 construct: also called gH/gL WT; source: 293F, transfected, purified (Ni-NTA, SEC); not shown: HIS Tag, C-terminal, kept

[2] = target: T2, EBV gH/gL on the surface of CHO-K1 effector cells (Epstein-Barr virus, UniProt P03231;P03212); assay: flow cytometry on cells; settings: one partner purified
T2 construct: also called gH/gL and gB fusion machinery

B1: AMMO1 (antibody, V domains shown)
VH: QVQLVQSGADVKKPGASVKVSCKASGYTFIHFGISWVRQAPGQGLEWMGWIDTNNGNTNYAQSLQGRVTMTTDTSTGTAYMELRSLSTDDTAVYFCARALEMGHRSGFPFDYWGQGVLVTVSP
VL: SYELTQPPSVSVAPGQRATITCGGHNIGAKNVHWYQQKPGQAPVLVIQYDSDRPSGIPERFSGSNSGSTATLTISRVEAGDEADYYCQVWDSGRGHPLYVFGGGTKVTVL
**Q.** Which koff [1] does the source give for B1 here?
**A.** 8.5e-05 s⁻¹

**Q.** And the kon [1]?
**A.** 577000 M⁻¹ s⁻¹

B2: AMMO1, human gH/gL-specific neutralizing antibody (recombinant IgG1) (antibody, V domains shown)
VH: B1 VH
VL: B1 VL
**Q.** Does B2 bind [2]?
**A.** binds
